Results on two molecules are retold here after article doi:10.1101/2023.09.15.557927 (bioRxiv, 2023).

For assay [1], the target named is T1, 6xHis-tagged LC8 (DYNLL2) (human, UniProt Q96FJ2 1-89). Description: fluorescence polarisation. For orientation: Polarisation of emitted light reports the rotation of a fluorescent probe.
Assay [2] addresses T1, 6xHis-tagged LC8 (DYNLL2). Description: SPR.
Target sequence in this assay (Q96FJ2 whole entry): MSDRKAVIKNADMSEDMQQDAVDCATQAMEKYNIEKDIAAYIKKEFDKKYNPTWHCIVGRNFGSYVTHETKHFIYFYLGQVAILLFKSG

No end group written: not given here. *: point of attachment. FITC = O=C1OC2(c3ccc(O)cc3Oc3cc(O)ccc32)c2ccc(NC(=S)*)cc21

The Kd is the constant that tells how readily two partners part at equilibrium. A lower Kd goes with tighter binding. With KESCNMETQTS [OFD1 peptide (KESCNMETQTS)], the Kd in assay [1] was 12.8 µM; in assay [2], 12.5 ± 1.3 µM.
For the molecule {FITC}-TSQEDKATQTL [FITC-labeled BMF peptide (FITC-TSQEDKATQTL)], in assay [1], the binding result is listed as “binds”.
